Experimental findings from a protein production outcome set (Wang et al. 2014) are described below.
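Note: failed if final PepcDB status was selected cloned or expressed and not failed if soluble or beyond.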

The nature of the data set: label from the status in PepcDB records.
For “MNDPVDDDAEPTGNHADGVTVADLIAKVAGSDGATPRRSRRRRAAEPDPEPEFEAQAEPAPKPTPEPEILPVAPEPPASADPTEVLQAIRYDEYPGDHAGEYPGDHPDAAYAGAADPNLDAIFEPAFAPMPFAGVTAAHPDLDSCDTEIIPAVPAADEHADLPDTHRDSWRRRTRPQHAGTDDFDEPHRRHPNRKAMIVGRAAAAMIAALTLVLTGGAWQWQSSKNDSLNKVAALDLGSRDILDPNAQFGDENFLIVGMDSRFGENSQMGAGSTDDADGARSDTIMLVNIPASRERVVAVSFPRDLAITPMKCEPWDPETGTYGPIWDEASGTYGPDEVYTETKLNSAFAFGGPKCLVKVIQKISGLSVNRFMAVDFAGFSKMVDALGGVEVCSTTPLEDYELGTVLANAGRQIVDGHTALNYVRARQVTTEYNGDYGRIKRQQLFLSSLLRSLISKDTFFSLSKLNNVVNMFIADSYVDNIKTKDLVDLGQSVQGVNAGRITFVTIPTTGYADEWGNEQPRMDDVRALFDAIINDDPLPGEKNPDNTPVPGTPESTTNTAQAPQSTSPAPQPAHAAPAPGSAEMVDTVTTEPQQVTVKVSNSTGQSGLAATAAGELEQHGFNVTTPDDYPGPLDATTVFFSPGNEEAAATVASSFSNAAIERVAGLGDVVQVVLGTDFMAVNPPSPSGSAIQVKLVRGTSSTPTQLPEDLSVTNAADATCE”, the protein production result is recorded as “failed”.
The result for “MNDSAPRRVRVRAPELIGKGGWLNTGDKQYTLADLRGRIVVLDFWTFCCINCLHVLDELRELEEKHRDTVVIIGVHSPKFVHEAEHQAVVDAVERYGVEHPVLDDPELATWKQYAVRAWPTLVVIDPEGYVVAQHAGEGHAHAIAALVAELEAEHEAKGTLRRGDGPYVAPEPEPTVLRFPGKALLLPSGNFLVSDTTRHQLVELAADGESVVRRIGSGIRGFADGPADAASFSEPQGMTLLDEDVVVVADTVNHALRRLDLATGEVTTLAGTGRQWWQGSPASGPAREVDLSSPWDVAVFGGRVWIAMAGGAPAVDVRPGGGDGRGRGGHDERGAGRRTGLEHHHHHH” reads “not failed”.
With “MNDTPDDTFVSGYLLYLLAASSEEASAQFHDHIRAQGLRVPEWRVLACLVDNDAMMITRLAKLSLMEQSRMTRIVDQMDARGLVTRVADAKDKRRVRVRLTDDGRALAESLVASARAHETRLLSALADTDAARIKGVLRTLLDVLDRPRESR” the entry was “not failed”; with “MNDVASTKSRVAAVSVVASATMAAAKFAVGIAIGSLALISEALHSSIDLVATIITWFVVRISDRPADDAHHYGHGKIESLSALGVIAMLYVLAGGILVEAYSRLREGAAPPTFSYLAFVILGVDIVVNLWRAWALHRTAVATKSQALAADALHFASDVLGSFAVIAGLALAAAGFHWGDAAAAIGVAVMISLLGLRLGRSTIQTLLDRAPEGVSDKAREAIGAVPGVVGVERLRARMVGPTHFIDALVEVPRTYPIDRIDEIKRKAQESMSEIFGDADLTFTAIPVARDNESVRERIMVIARNSGLAVHHVTVHDLGGHKLIVSIDLEVDGNMPLIEAHDIAHKLEDHIREDFGADVEVDTHIEPLEPELPQGSDAEPARVEEIRLALRRLTHDGAIHDVHSVRVRDTDAGEIVNFHCYADPSMSVISVHDHVDEIERKLRAKFPSVKRVISHAEPPNAD”, “failed”.
The result for “MNEADYLRLLTRQAEQANDFLSNARKWDRERWVCQRFLEALNVPYRQEDFAAPGEQPPDVLFKGAGFEVFFVLDEGRRLNEEWREELTRRRQAVSLRQLIRREERPQRIAAAELQARLAPTLRKKAHNYSERGIDHGELDLLAFVNLKRAVPDFNTPFPPPTEYLRQGWRSLSMVGPTFARVLFAHSGAPEFLRANLGRSILFDAGVGL” reads “not failed”.
On to “MNELDVREFYQKQFELSNYDINTERWLEQLAKEVKEQIGYPFQSMLELGAGNGGFARAMSNLNVKMTTVELVPELVMFAKEHSTNDIEVHCADFYKINFEEKFDIVTYLDGFGVGTDEEQLFLLKRIYNWLKDDGCALIDIYQPLYWEKANGQEMPIYSAMRKYEYDSENARMLDHWWEKDSSNDIVTQSLRCYTIDEISNLCAEARFSIVGIFPGGAYDFEERKYKEQASLNECLSYRIKVKKSKD”, for which the protein production entry is “failed”.
Take “MNEPQAFAQTDAEWLASINRARDWFQGPLGSLMLAEERRLLCDELTRYFGGYLVHYGPHAELPPSTGQIQRGVRLGPPLPGVDIACEEGAWPLSEHAADVVLLQHGLDFCLSPHRLLREAARTVRPGGHLLLIGINPWSLWGIRHYFAGDALRQARCIPPSRACDWLNLLGFALEKRRFGCYRPPLASAAWQSRLARLERWGDAWQSSGAGFYLLVARKLVVGLRPLRQSKREPRGQLVPMPVAKVSRRDSEI”: the protein production result is listed as “failed”.
With “MNEREAKMYELEFPAPDVASDGVDGPTLIIAMQGYADAGLAVEASADHLLSALEHRPVAVFNNDELIDYRSRRPAVTIDHNIVVDANELKLSMDVLRDSNGTPFLLLSGPEPDLRWDAFSQAVADLVRRFGVRRTICIYAAPMTVPHTRPLIVSAHGNSLDLIKHHFSIDSKVTIPGSASLHIERLLNKNNIDVAGYTAHVPHYLSASAYPLATLKLLEAITTSTNLDFPLKTLEADAQKTALQVEEQVAGSQEIESVVKILEQQYDE” the entry was “failed”.
With “MNESSTHDSVADDPTEVSTDTVLDIALSLFSELGFSDAKLEAIAKKSGMSKRMIHYHFGDKRGLYICCLEEAVRRLRPTAEEMYLASAVPVEGVRTIVEAVFHRYVQHPEAVRMLQMENLHHYGKVAEASPLSDQSAITLQLDRLLMLGQDAGAFRPGISAQDVFTLIASIAVFRINSRSTTLNLYGIDMMNGDNTDGMRRMAVDTVLAFLTSNLKSADEDSYLSRPLLSTVTEHVDEEGSYEVAADPFS” the entry was “not failed”; with “MNEVKSLTTAEGPTKLLNLQLKDLGDSLIDVALWGKLAEDVYSNIKSQPSGPVFSSWKFDEDFAISRHSSKLKIYNKSLYPFSTTRDSSVSRSFNCFGETPQELLDLGGRNYVFKIMVKHEAKHNQSSTYKMISLTDVLNVIQSFFESASTLNDIEQEIITVSGNSVGTSIGTTTQAEINFVDVDNLDNNEDNAYYISTPKPITKRFLATSKHVQQSSTKP”, “not failed”.
With “MNEYLQAVLMILLTIVLYYVSKKIQDKYNNPLLNPALIASIAIIIVLLVCGVSYKGYMKGGTWINHVLNATVVCLAYPLYQNKKKIKKYLTIIFTSVLTGVVLNFVLVFTTLKIFGYSKDTIVTLLPRSITAAVGIEVSQELGGTDTITVLFIITTGLIGSILGSMLLRMGGFKSSIARGLTYGNASHAFGTAKALELDIESGAFSSIGMILTAVISSVLIPVLILLFY” the entry was “failed”.
For “MNFAGQPLQDGSLPRIGTGKDALSLLDLSDFVARHWRFIGLVTVFVMALALAYLAAAPSRYTAQTDMIIDTKRVTWTQSEFATENRMVEDASVESEIETTKSEKVALQVIRKLRLTEDPEFIGSGTGLRNRLYQLLDLDAPISPQLTPSELEARALSRVKDNLKVMRLGRSYIEQISFTSLVPEKAAVIANAFADAYIEDQIQAKFEATRRASEWLQQRIGELRQQASDAYRAVQDFKSSNSIIVSGDGKLASDLELDQLGISLAKARAETSQARAKLERITRVLELRQEKGSNEIPDPVVTDALSNPVITRLRQQYLDNQSKEAEWSSRYGAEHQAARNLRSEMANVRQAIWDEVSRIAESYRSEVQIAKTQEDSIDKRMIEVFQSSTGTRQAQVHLRELETAATTYRGIYETFLTRFTQSVQQQSFPSTEARVVTLASPPSVRSSPKTNLTLALAAISGLTLGILGAFARDRMSRRIHTRAQLETILGTSCLAIIPSFANPALTSQTSTSSSRLSRAVKQLLRKRDHVPGQPRERSQANSAAFEKINDVAPFSATAEALRHIKVAIDLSPGGGRVIGIVSARPGEGKTTICASFAAFLARSGARTLLIDGDLRNPSLSRTLGYKNKRGLLELVADQLQLSDLVVTDPVYKFDFLPSATEMKPINSADVLTSPSVKRMLKSAAGNYDYIIVDLPPILPVVDVKAAAHLFDAFVLVVEWGATMSDEVRSAVGVSRSLSERLLGAVLNKTDEDVMRRLEGYSYRSHHYYYYGAPKHENEQTKN”, the protein production result is “failed”.
As for “MNFEYPDGATPLDSDEAEGLLLTHITSRGELDRWEQENIAEGEAWAFGRRQKNILSEAFIRRLHKRMFGHVWRWAGEFRRSDKNIGVTWWQVPIELRKLCDDVVAWIAFGTYPPDEIAVRFHHRLVAIHPFANGNGRHARTMTDLLLVQALQRPRFTWGSGNLVSVGDCRRYYIEALRAADRHDYQLLLEFVRMLEHHHHHH”, the protein production result is “failed”.
The result for “MNFIIEPGSLADIDELERLYDELNDHLSATINYPGWIKGIYPVRENAAAGVDDNSLFVARCDGRIAGSVILDHQPEKAYENIVWKIDADYSYIFVVRTFVVHPSFLQMGVGHALMDFSLELALKSEMKSIRLDVYEKNLPAISLYEKCGFEYIDTVDLGLGHYGLDWFKLYEKVILEHHHHHH” reads “not failed”; that for “MNGARKWFFPDGYIPNGKRGYLVSHESLCIMNTGDETAKIRITFLFEDSKPVVHEVEISPMKSLHLRLDKLGIPKCKPYSIMAESNVPVVMQLSRLDVGKNHYTLMTTIGYWEE”, “not failed”; that for “MNHDLLTNNPLLIVSAIFVFFILLEIACSAFGQPRGQRRDVLIEAVGSSLLLGVTFPLVMWASGALMQLSLPEAKGALAQIPWVLGLLLFLVFDDMTQYWWHRLTHRVPALYALHRAHHSAPYMSIRIVYRNNSFYYLLMPGIWFSGVLIYLGLAPVYYGYLILKMTVIFAAHSSVAWDDKLYRIGFLRPLMWLLERVFSTPSTHSAHHGLSAEDGVTHYKGNFGNLLFLWDVLFGTAKITRRRPVAYGIEHLAPVSWTQELFWPLVRSRKARASAVARVEGALPANPASQG”, “failed”.
The result for “MNHYFRAIGSMLILVYSTFFAIFFIDKVFVNIMYFQGMFYTQIFGIPVLLFLNLMVILLCIIVGSVLAYKINQQNHWLKDQIERSIEGQTVGINDQNIELYNETIELYQTLVPLNQEVHKLRMKTQNLTNESYNINDVKVKKIIEDERQRLARELHDSVSQQLFAASMMLSAIKETELKAPLDQQIPVLEKMIQDSQLEMRALLLHLRPIGLKDKSLGEGIKDLVVDLQKKVPMKVVHDIEEFKVPKGIEDHLFRITQEAISNTLRHSKGTKVTIELFNREEYLLLRIQDNGKGFNVDDKVEQSYGLKNMRERALEIGATFHIVSLPDAGTRIEVKAPLNKEDSNAD” reads “failed”.
As for “MNIAANPHVQADQTVYLKDYQKPSFLVESINLDIQVYDDHTVVESTLVMNRQTAGDLVLLGRDLELKSIVLNGKNLEVGQYQLDHEQLVITHAPDQVILNTQVVIHPESNTQLEGLYKAGGDLFVTQNEPEGFRKITFYPDRPDVLAEFTTRVEADKKFPVLLANGNLLETGTVGENRHFAIWQDPTKKPSYLFACVIGDLAVLKDHYTTSEGREVALEIYAIEKDIPKCHIAMEALKHSMRWDEEHYGRPYDLDNYMIVAVSQFNMGAMENKGLNIFNTSCVLADEEYTTDAAIMRVQSVIAHEYFHNWTGNRITCRDWFQLCLKEGLTVFRDQSFSEDLQSAAVQRIDDVAVLKAHQFPEDAGPLSHPPRPDHFVEINNFYTATVYEKGAEINRMMSTLLGKEKFRQGTDEYFHRYDGQAVTVEDWVNALSAGSGVDLSNFLTWYNQPGTPKLEAKGEYDEQNHVYRLSFKQSLKVHPKYPNLKAVPVPVALALFNAETGEQYTLHCQDLFVNEVQDGVYLFDQDTATIEFSNVTQKPVVSLLRNFSAPVNLDFDYSDDELAFLIEYETNGFNQWQASQTLLERILLKDHAVEPYIKAIKNTLPDLVKKDPLLASRLFDVPTEGYLGSRIDHDYKPEAIQEKRNSVLETLARELGAFWKETYLSLDPSLQNDFSQAMGERALKNIMLSMMARQGDDSVFDLAYTQYSQTKNMSERLGALRVLVWNDAPQAQNALDDFYRRYKDEALSLDQWFMVQAANPNATAETIKALTEHPDYDLGTPNRVRSVSGGLSNNPVNAWSFGVEHYIGLAEYFDEKNPILGSRLLQVLSRWYTLAEPQRGNVQNALKDLQPHVKSKNVKETLNSILSV”, the protein production result is recorded as “failed”.
With “MNIDEIERKIDEAIEKEDYETLLSLLNKRKELMEGLPKDKLSEILEKDRKRLEIIEKRKTALFQEINVIREARSSLQK” the entry was “not failed”.
